Assay results published in FireProtDB (doi:10.1002/pro.398).

B1: Ovalbumin, P01012 (parent)
chain: MGSIGAASMEFCFDVFKELKVHHANENIFYCPIAIMSALAMVYLGAKDSTRTQINKVVRFDKLPGFGDSIEAQCGTSVNVHSSLRDILNQITKPNDVYSFSLASRLYAEERYPILPEYLQCVKELYRGGLEPINFQTAADQARELINSWVESQTNGIIRNVLQPSSVDSQTAMVLVNAIVFKGLWEKAFKDEDTQAMPFRVTEQESKPVQMMYQIGLFRVASMASEKMKILELPFASGTMSMLVLLPDEVSGLEQLESIINFEKLTEWTSSNVMEERKIKVYLPRMKMEEKYNLTSVLMAMGITDVFSSSANLSGISSAESLKISQAVHAAHAEINEAGREVVGSAEAGVDAASVSEEFRADHPFLFCIKHIATNAVLFFGRCVSP

Variants of: B1
Conditions: Gallus gallus, Thermal, CD, structure 1UHG, whole UniProt chain shown

| Variant | Tm (pH 7, Phosphate 10 mM) | change of melting temperature, mutant - wild type (higher = more stable) (pH 7, Phosphate 10 mM) | Tm (pH 10, Glycine-NaOH 0.1 M) | change of melting temperature, mutant - wild type (higher = more stable) (pH 10, Glycine-NaOH 0.1 M) |
| --- | --- | --- | --- | --- |
| S165A | 70.8 °C | 1 °C | 75.6 °C | -3.3 °C |
| S165A S321A | 71.3 °C | 1.5 °C | 71.8 °C | -7.1 °C |
| R143A | 69.8 °C | 0 °C | 75.6 °C | -3.3 °C |
| R143A S321A | 70 °C | 0.2 °C | 71.2 °C | -7.7 °C |
| S321A | 69.3 °C | -0.5 °C | – | – |
| S237A | 70.4 °C | 0.6 °C | 79.3 °C | 0.4 °C |
